Assay results taken from PMC8548084, “The role of DDK and Treslin–MTBP in coordinating replication licensing and pre-initiation complex formation” (Open Biology, 2021).

Target: T1, MTBP (Mdm2 Binding Protein), Xenopus (Xenopus laevis (endogenous in egg …, UniProt Q6NRW0 1-860))
T1 construct: MTBP of Xenopus laevis, endogenous in egg extract; 96 kDa as printed; Printed N-terminal 125 residues (antigen MTBP-2): [residues removed]
T1 sequence (looked up): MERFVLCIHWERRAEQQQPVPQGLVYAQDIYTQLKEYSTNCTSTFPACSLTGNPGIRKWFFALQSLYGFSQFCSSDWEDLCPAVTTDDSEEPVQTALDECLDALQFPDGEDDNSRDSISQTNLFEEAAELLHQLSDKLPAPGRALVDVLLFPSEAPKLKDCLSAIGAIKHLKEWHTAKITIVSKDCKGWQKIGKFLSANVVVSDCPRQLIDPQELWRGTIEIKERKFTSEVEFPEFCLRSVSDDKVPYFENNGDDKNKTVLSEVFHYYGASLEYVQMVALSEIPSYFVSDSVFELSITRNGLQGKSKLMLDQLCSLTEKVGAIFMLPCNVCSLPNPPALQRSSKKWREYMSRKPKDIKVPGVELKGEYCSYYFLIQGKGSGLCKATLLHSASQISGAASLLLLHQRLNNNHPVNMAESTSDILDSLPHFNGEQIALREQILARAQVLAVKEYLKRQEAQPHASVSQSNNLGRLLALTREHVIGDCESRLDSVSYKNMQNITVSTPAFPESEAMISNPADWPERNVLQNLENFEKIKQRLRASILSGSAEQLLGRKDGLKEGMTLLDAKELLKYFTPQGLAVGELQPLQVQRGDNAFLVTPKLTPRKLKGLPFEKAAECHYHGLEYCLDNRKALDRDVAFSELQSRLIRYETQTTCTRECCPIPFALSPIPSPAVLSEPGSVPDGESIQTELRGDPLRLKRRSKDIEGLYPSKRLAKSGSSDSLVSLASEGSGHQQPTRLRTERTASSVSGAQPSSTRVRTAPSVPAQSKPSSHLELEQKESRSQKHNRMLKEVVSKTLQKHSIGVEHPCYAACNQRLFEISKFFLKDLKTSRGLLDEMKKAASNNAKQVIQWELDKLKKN
Experiment: SEC + other: sucrose gradient centrifugation; 3% PEG-precipitated proteins of Xenopus egg extract in LFB1/50; Agilent BIO SEC-5 column at 4°C and 5-40% sucrose gradient; fractions immunoblotted for MTBP and Treslin; native mass by the Siegel and Monty equation
Conditions: partners not purified

B1: Treslin/Ticrr, Xenopus (natural protein, UniProt D3IUT5 1-1985, looked up)
chain: MAPSHNVVLLVDTAESSDKSRLRRVSLRLLNFLACRAGLGQVRWSYRFLNSSGGRCRPPRRSDLRELGPRGWEEFEDELEACWERARNCRPSSTQSSRAQLLQTALMETLADFQWDRPDITSPTKPTLLRSRRGRIVAADEPLKDDSPDNFINPHSRNSIFLLSSCPHSGTELGQFAATSGDFSTQKVMDKLLPKSLQKIVSSKRVRVYWLDTSDWTQFGSSSDHSGYWTMVELMHQVEGRILPSESILGSSCQKAKTLPSFSVPPINIPFESVLNYLIFSEPDYQLWFPRRDGILFLTGKDGTKQLDCAVSLEPVSMIQKLSTSLMTIELKGTMQNCNLPLAGLRVETWLLHNSDCVQLQKLTKELMLKELHMIATVTLEDDVLPRTGILSPLSETAAVLNVICSERTLGLDNLHVQGSVHETDKETFSDLPDIVMSVLNHVYSSEDNTLAPDFPVPEWIKQELSQSSRWTSSVTARWYPLSGVSGASCNLMESFRLINAASSNCDEHLKFDQELTNYLSEFYQKKSVDDAGLGVHRENQKKSGLPRTPVRQKMKTLPRALQMLNAARLNVKAQKADSTLPVPNEKNSQMKRRSSGKQDNKPKQLKPTEFQSEDGLISYIKENYEEAVSLVDHSTMTWARDTLTTIKSYLKSIGSEQIETEAIDKVKLLFKTSKVIRQNYRNNQDKEVKLKECQLQVFLRLEMFVQCPVIQMDSDELELIIEEITDILRIVSLTEDPLFLTKFLEVDVLTQYIASVPKILADIYFSLGTQIPEVLVLVLPSDGDDSIMHEEKSVKSQPSTSRVPSVAPIGAETDQLEDLRTRSAKKRRSTALARHRSVAESSQSFRQIEVPKRQPNKENVQSNAVVVLEKLKLPLPAQPQKDAEAKVRRNLFIQETRSPSKRCSKMPRSQSVSAVESLKRKRSKSHDGSKDHHKLLTKKVSETPVHKQTANRLLLRQIKGRPSESNSNISIVEESPEKEIRDIDLRRSPRIKQLSLTRRNSSSFYASQPKSRNLERVNSATQLQQSRERPGSCLISEVKTPKRLLFGEVLGMISPPTTKRSRRILDMVNPVYKTPGKTPRKTPSKNIPNFEDQSGNMLVKSPCTPYTPRTPSRTPKRLKTPSKGSTERKKAAKNLGKLFSPSKPEEKSPLKLWGRRSERLAQMTPGKDGSPYKQSVCQTLMEVKTPQKLQRLESKDFRTPSRTPTRSNNTTPAKQSMQISNTPRKSDLKHPQEHESRGPSGYILWTPQKRILASVPHTPILQTPQKPISASVPRTPVCRTPQKAILSSVPSTPVCQTPNKAILTSVSRTPVYQTPQKAILASVMSTPVYQTPQKPVLASVPTTPILKTPQRSALASVSHTPSPKKYIMKELTVAITRMRECTPEKVLGSNLSSSATPSSALKSFCSEKTTSVCQTPKKSSIALLKPCDSLEFSGAPERLMDSLCSNKDSTKAETACTVPSQISTQMQNVINAGECTDSLSQTSVSSPSIPFTDKSLSPDLKDALSDVTSSKAEGVTIVSEKLDSSSMDSQEATDSFINSSQTEESIDISEARVVSTEASELKMKVLITRKPSGSGVSYLPTTPKCLGNVCSTSTYGLRCTPDRRQREAAARLGTPEIPAKFSTPKSHCKMIPQSIYEVELEMQESGLPKLRFKRTDSNSTIDMDVNKTPKISRKRKGDESPFNEKWCSKHAVRTEPACVSPSCVRTSHYTPGKSGIQTFICQSYTPNRCLSAAASPSQSDAGVPWTPSPKEKLSTDVINSWPRKKKASALCTNLLKCDKIPEYAEEDGGDFELEGVSKLLEKSPVIEQQSKVDGGTFGLRSRKRVFSLVSPTKETENPVKRVCTFNRHEDSSTATHRHQTKEEMEIFSSDQSRSSYLSSSQQSICDDVFNMSDFTPPSKVPKNPLSACGLLTLTQSPLLYKGKTPSSKRKEKIQDVFSDGDSDHGTPTLKRPTNPAAVSDDSPFRKVNPLRSISKTYSRKKLIT
notes: Treslin (Ticrr) of Xenopus laevis, endogenous in egg extract; 220 kDa as printed; no sites are mapped
**Q.** How did the “stoichiometry N” value turn out when B1 was run?
**A.** The value was 2 molecules of Treslin with 2 molecules of MTBP.
